Measured values from patent publication US20040106148A1, “Polypeptides” (priority 2000, published 2004).

B1: CT-PH TAPP1: GST fusion of isolated C-terminal PH domain of human TAPP1, residues 95 to 404 (protein, UniProt Q9HB21 95-404, looked up, fragment)
chain: NDQQDLVEWVNVLNKAIKITVPKQSDSQPNSDNLSRHGECGKKQVSYRTDIVGGVPIITPTQKEEVNECGESIDRNNLKRSQSHLPYFTPKPPQDSAVIKAGYCVKQGAVMKNWKRRYFQLDENTIGYFKSELEKEPLRVIPLKEVHKVQECKQSDIMMRDNLFEIVTTSRTFYVQADSPEEMHSWIKAVSGAIVAQRGPGRSASSEHPPGPSESKHAFRPTNAATATSHSTASRSNSLVSTFTMEKRGFYESLAKVKPGNFKVQTVSPREPASKVTEQALLRPQSKNGPQEKDCDLVDLDDASLPVSDV
modifications: C-terminal PH domain GST fusion
B2: evectin-2: GST fusion of human evectin-2 residues 1 to 167 (protein, UniProt Q96CS7 1-167, looked up, fragment)
chain: MAFVKSGWLLRQSTILKRWKKNWFDLWSDGHLIYYDDQTRQNIEDKVHMPMDCINIRTGQECRDTQPPDGKSKDCMLQIVCRDGKTISLCAESTDDCLAWKFTLQDSRTNTAYVGSAVMTDETSVVSSPPPYTAYAAPAPEQAYGYGPYGGAYPPGTQVVYAANGQA
modifications: GST fusion
B3: N-terminal PH domain of TAPP2: GST fusion of isolated N-terminal PH domain of mouse TAPP2, residues 1 to 131 (protein, UniProt Q9ERS5 1-131, looked up, fragment)
chain: MPYVDRQNRICGFLDIEDNENSGKFLRRYFILDTQANCLLWYMDNPQNLAVGAGAVGSLQLTYISKVSIATPKQKPKTPFCFVINALSQRYFLQANDQKDLKDWVEALNQASKITVPKAGTVPLATEVLKN
modifications: N-terminal PH domain GST fusion
B4: C-terminal PH domain of TAPP2: GST fusion of isolated C-terminal PH domain of mouse TAPP2, residues 174 to 425 (protein, UniProt Q9ERS5 174-425, looked up, fragment)
chain: GTHAFLRRSQSYIPTSGCRPSTGPPLIKSGYCVKQGNVRKSWKRRFFALDDFTICYFKCEQDREPLRTIPLKDVLKTHECLVKSGDLLMRDNLFEIITTSRTFYVQADSPEDMHSWIEGIGAAVQALKCHPREPSFSRSISLTRPGSSTLTSAPNSILSRRRPPAEEKRGLCKAPSVASSWQPWTPVPQAEEKPLSVEHAPEDSLFMPNPGESTATGVLASSRVRHRSEPQHPKEKPFVFNLDDENIRTSDV
modifications: C-terminal PH domain GST fusion
B5: FAPP1: GST fusion of the PH domain of human FAPP1 (residues 1 to 99), PtdIns-Four-phosphate AdaPtor Protein-1, expressed in E. coli (protein, UniProt Q9HB20 1-99, looked up, fragment)
chain: MEGVLYKWTNYLTGWQPRWFVLDNGILSYYDSQDDVCKGSKGSIKMAVCEIKVHSADNTRMELIIPGEQHFYMKAVNAAERQRWLVALGSSKACLTDTR
modifications: PH domain GST fusion
notes: GST fusion of the PH domain of human FAPP1 (residues 1 to 99), PtdIns-Four-phosphate AdaPtor Protein-1, expressed in E. coli
B6: pleckstrin-2: GST fusion of mouse pleckstrin-2 residues 1 to 249 (protein, UniProt Q9WV52 1-249, looked up, fragment)
chain: MEDGVLKEGFLVKRGHIVHNWKARWFILRQNTLLYYKLEGGRRVTPPKGRIVLDGCTITCPCLEYENRPLLIKLKTRTSTEYFLEACSREERDSWAFEITGAIHAGQPGKIQQLHILKNSFKLPPHISLHRIVDKMHDTSTGIRPSPNMEQGSTYKKTFLGSSLVDWLISSNFAASRLEAVTLASMLMEENFLRPVGVRSMGAIRSGDLAEQFLDDSTALYTFAESYKKKVSSKEEISLSTMELSGTVV
modifications: GST fusion
B7: NT-PH TAPP1: GST fusion of isolated N-terminal PH domain of human TAPP1, residues 1 to 147 (protein, UniProt Q9HB21 1-147, looked up, fragment)
chain: MPYVDRQNRICGFLDIEENENSGKFLRRYFILDTREDSFVWYMDNPQNLPSGSSRVGAIKLTYISKVSDATKLRPKAEFCFVMNAGMRKYFLQANDQQDLVEWVNVLNKAIKITVPKQSDSQPNSDNLSRHGECGKKQVSYRTDIVG
modifications: N-terminal PH domain GST fusion
B8: PH domain of mouse centaurin-β2: GST fusion of mouse centaurin-β2 residues 266 to 390, expressed in 293 cells (protein, UniProt Q6ZQK5 266-390, looked up, fragment)
chain: GIVMEGYLFKRASNAFKTWNRRWFSIQNNQLVYQKKFKDSPTVVVEDLRLCTVKHCEDIERRFCFEVVSPTKSCMLQADSEKLRQAWIKAVQTSIATAYREKGDESEKLDKKSSPSTGSLDSGNE
modifications: PH domain GST fusion
notes: GST fusion of mouse centaurin-β2 residues 266 to 390, expressed in 293 cells

Key:
Type in all cases: binding
[1] = Protein-lipid overlay; conditions: GST fusion protein, dipalmitoyl lipid spotted on membrane, FIG. 2
Method: (§1) FIG. 2. Phosphoinositide binding properties of the novel PH domains. The ability of the indicated GST fusion proteins to bind a variety of phosphoinositides was analysed using a protein-lipid overlay. Serial dilutions of the indicated phosphoinositides (100 pmol, 50 pmol, 25 pmol, 12.5 pmol, 6.3 pmol, 3.1 pmol and 1.6 pmol) were spotted onto a nitrocellulose membranes which were then incubated with the purified GST fusion proteins. The membranes were washed and the GST-fusion proteins bound to the membrane by virtue of their interaction with lipid were detected using a GST antibody. A representative of at least 3 separate experiments carried out is shown.
(§2) Protein-Lipid overlay. To assess the phosphoinositide binding properties of each PH domain, a protein-lipid overlay assay was performed using the GST fusion proteins as described previously. […]
(§3) We studied the specificity and affinity of interaction of the PH domains for phosphoinositide lipids using either a “protein-lipid overlay” assay (FIG. 2) or the more quantitative surface plasmon resonance based approach (Table 2). […] For the surface plasmon resonance based assay, the apparent Kd values of the GST PH domain fusion proteins resulting from their interaction with a supported lipid monolayer containing a low mole fraction of phosphoinositide, was determined (Table 2).

[2] = Protein-lipid overlay; conditions: GST fusion protein, lipid spotted 1.6-100 pmol on membrane, FIG. 2 / FIG. 4
Method: as §1
FIG. 4. […] The ability of wild type and mutant forms of full length (FL) and isolated N-terminal (NT) and C-terminal (CT) PH domains of TAPP1 and TAPP2 GST-fusion proteins to interact with phosphoinositides were analysed using a protein-lipid overlay. […] The membranes were washed and the GST-fusion proteins bound to the membrane by virtue of their interactions with lipid were detected using a GST antibody. […]
We studied the specificity and affinity of interaction of the PH domains for phosphoinositide lipids using either a “protein-lipid overlay” assay (FIG. 2) or the more quantitative surface plasmon resonance based approach (Table 2). […]

[3] = Protein-lipid overlay, panel of phosphoinositides; conditions: GST fusion protein; for Binding to any other phosphoinositide (than the one bound): FIG. 2; for Interaction with any phosphoinositide tested: FIG. 2 / FIG. 4A
Method: as §1
FIG. 4. Comparison of the phosphoinositide binding properties of the N-terminal and C-terminal PH domains of TAPP1 and TAPP2. The ability of wild type and mutant forms of full length (FL) and isolated N-terminal (NT) and C-terminal (CT) PH domains of TAPP1 and TAPP2 GST-fusion proteins to interact with phosphoinositides were analysed using a protein-lipid overlay. Serial dilutions of the indicated phosphoinositides (100 pmol, 50 pmol, 25 pmol, 12.5 pmol, 6.3 pmol, 3.1 pmol and 1.6 pmol) were spotted onto a nitrocellulose membrane which was then incubated with the indicated purified GST fusion proteins. The membranes were washed and the GST-fusion proteins bound to the membrane by virtue of their interactions with lipid were detected using a GST antibody. A representative experiment of three is shown. The isolated N-terminal PH domain of human TAPP1 comprises residues 1 to 147, the isolated C-terminal PH domain of human TAPP1 comprises residues 95 to 404, the isolated N-terminal PH domain of mouse TAPP2 comprises residues 1 to 131 and the isolated C-terminal PH of mouse TAPP2 comprises residues 174 to 425.
Protein-Lipid overlay. To assess the phosphoinositide binding properties of each PH domain, a protein-lipid overlay assay was performed using the GST fusion proteins as described previously. Briefly, 1 μl of lipid solution containing 1-100 pmol of phospholipids dissolved in a mixture of choroform:methanol:water (1:2:0.8) was spotted onto Hybond-C extra membrane and allowed to dry at room temperature for 1 h. The membrane was blocked in 3% (by mass) fatty acid-free BSA in TBST (50 mM Tris/HCl pH 7.5, 150 mM NaCl and 0.1% Tween-20 (by vol) for lh. The membrane was then incubated overnight at 4° C. with gentle agitation in the same solution containing 0.2 μg/ml of the indicated GST fusion protein. The membranes were washed 6 times over 30 min in TBST and then incubated for 1 h with 1/1000 dilution of anti-GST monoclonal antibody (Sigma). The membranes were washed as before, then incubated for 1 h with 1/5000 dilution of anti-mouse-HRP conjugate (Pierce). Finally, the membranes were washed 12 times over 1 h in TBST and the GST-fusion protein bound to the membrane by virtue of its interaction with phospholipid was detected by enhanced chemiluminescence.
We studied the specificity and affinity of interaction of the PH domains for phosphoinositide lipids using either a “protein-lipid overlay” assay (FIG. 2) or the more quantitative surface plasmon resonance based approach (Table 2). For the protein-lipid overlay assay, serial dilutions of phosphoinositides were spotted on to a nitrocellulose membrane and incubated with the indicated GST PH domain fusion protein or GST-DAPP1 (that binds PtdIns(3,4,5)P3 and PtdIns(3,4)P2 [4]), GST-GRP1 (that binds only PtdIns(3,4,5)P3 [8]) and GST-phospholipase Cδ1 (that binds only PtdIns(4,5)P2 (Ferguson et al (1995) Cell 83, 1037-1046)) as controls. The membranes were then washed and immunoblotted with a GST antibody to detect GST fusion proteins bound to the membrane by virtue of their interaction with lipid. […]

[4] = Protein-lipid overlay; conditions: GST fusion protein, lipid spotted on membrane, FIG. 2 / FIG. 11
Method: as §1
Methods used are equivalent to those specified in the legend to FIG. 2.
as §2, §3

Row | Molecule | Binding to any other phosphoinositide (than the one bound) [3] | Interaction with any phosphoinositide tested [3] | other results
1 | B1 | did not bind | – | Interaction with PtdIns(3,4,5)P3 [1]: did not bind; Interaction with PtdIns(3,4)P2 [2]: interacted with PtdIns(3,4)P2
2 | B2 | interacted more weakly | – | –
3 | B3 | – | failed to interact | –
4 | B4 | did not bind | – | Interaction with PtdIns(3,4,5)P3 [1]: did not bind; Interaction with PtdIns(3,4)P2 [2]: interacted with PtdIns(3,4)P2
5 | B5 | did not bind | – | Interaction with PtdIns4P [4]: high affinity
6 | B6 | – | interacted with several phosphoinositides | –
7 | B7 | – | failed to interact | –
8 | B8 | did not bind | – | –
